The values below come from PMC7494997 (Scientific Reports, 2020).

Experiment [1] has as its target T1, yeast-displayed hVISTA (human).
T1 construct: also called wild-type hVISTA; WT VISTA
As to the kind of experiment: flow cytometry on cells; hVISTA (Phe33-Ala194) displayed on yeast, titrations of soluble antibody in PBS/BSA pH 7.4, 4 °C, 12 h. Particulars: one partner purified.

Experiment [2] has as its target T1, yeast-displayed hVISTA. As to the kind of experiment: flow cytometry on cells; hVISTA (Phe33-Ala194) displayed on yeast, titrations of soluble antibody in PBS/BSA pH 6.0, 4 °C, 12 h. Particulars: one partner purified. In general terms: A flow cytometer gives signals particle by particle.

T1 sequence (chain, as listed by the source): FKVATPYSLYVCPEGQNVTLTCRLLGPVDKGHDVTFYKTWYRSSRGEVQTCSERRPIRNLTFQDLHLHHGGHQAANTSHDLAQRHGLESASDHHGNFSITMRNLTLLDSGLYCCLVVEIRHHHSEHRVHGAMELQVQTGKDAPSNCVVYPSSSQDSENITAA

B1: VSTB112 (antibody, V domains shown)
VH: QVQLVQSGAEVKKPGSSVKVSCKASGGTFSSYAISWVRQAPGQGLEWMGGIIPIFGTANYAQKFQGRVTITADESTSTAYMELSSLRSEDTAVYYCARSSYGWSYEFDYWGQGTLVTVSS
VL: DIQMTQSPSSLSASVGDRVTITCRASQSIDTRLNWYQQKPGKAPKLLIYSASSLQSGVPSRFSGSGSGTDFTLTISSLQPEDFATYYCQQSAYNPITFGQGTKVEIK
notes: human IgG1 heavy chain; human kappa light chain; full human IgG1; also called CI-8993 (Janssen/ImmuNext, Curis); source: Expi293 cells, purified (protein A)
One may read the Kd as a measure of binding affinity in units of concentration. B1 displayed a Kd in experiment [1] of around 3 nM.

B2: BMS767 (antibody, V domains shown)
VH: EVQLVESGGGLVQPGKSLRLSCAASGFTLEDYAMHWVRQAPGKGLEWVSGIDWNSENIGYADSVKGRFTISRDNAKNSLYLQMNSLRTEDTALYYCAKVPGYSGGWIDAEDDWGQGTMVTVSS
VL: not shown
notes: human IgG1 heavy chain; human kappa light chain; full human IgG1; also called BMS (Bristol Myers Squibb); source: Expi293 cells, purified (protein A)
Molecule B2 gave a Kd in experiment [2] of around 3 nM.
